{"source": "paper PMC9701214", "about": "“Orthogonal glycolytic pathway enables directed evolution of noncanonical cofactor oxidase” (Nature Communications, 2022)", "molecules": {"B1": {"name": "Lp Nox (Lactiplantibacillus pentosus; D177W/G178E/I158S/V240L) (protein)", "chain": "MKVIVIGCTHAGTAAVNQILASNPETDVTIYERNDNVSFLSCGIALYLGGEVADPQGLFYSSPEQLAKLGANVHMQHDVTDVDTENHEITVTDLKTGESKKDYYDKLVVTTGSWPVIPPIDGIDSPNVYLCKNWTHAQSLWEAAKPAKRVIVIGGGYSGTELVEAYQKQGKEVTLIWELPRILNKYLDKGFTDRVEKDFVDHGIKMALNQMVKGFSDDGKEVTVKTDKGSYTADMAILCLGFRPNTSLLKGKVDMNPNGSIKTNDYMQTSDPDIYGAGDSVAVHYNPTKKDAYIPLATNAVRQGTLVGLNIFKPTRKYMGTQSTSGLMLFGKTIVSSGMTLEHAQAEKVPAEAVTFEDNYRPEFMPTTKPVLMQLVYNPETREILGAQFMSEHDVSQSANVISVMIQNHNTIDDLGFVDMFFQPIYDRPFNYLNLLGQAAIAHAAEKVTE", "notes": "recombinant from E. coli BL21(DE3), pQElac vector (pLS504), purified on His-Spin column (His-tag implied); FAD added at lysis"}, "B2": {"name": "Lp Nox (Lactiplantibacillus pentosus) (protein)", "chain": "B1 chain with S158I, W177D, E178G, L240V", "notes": "as for B1"}, "B3": {"name": "Lp Nox (Lactiplantibacillus pentosus; D177W/I158S/V240L) (protein)", "chain": "B1 chain with E178G", "notes": "as for B1"}}, "key": {"[1]": {"molecular_target": "T1, XenA (Pseudomonas putida, UniProt Q9R9V9)", "T1 construct": "purified recombinant enzyme (plasmid pEK102 carries XenA WT)", "T1 sequence (Q9R9V9 entry or part of it)": "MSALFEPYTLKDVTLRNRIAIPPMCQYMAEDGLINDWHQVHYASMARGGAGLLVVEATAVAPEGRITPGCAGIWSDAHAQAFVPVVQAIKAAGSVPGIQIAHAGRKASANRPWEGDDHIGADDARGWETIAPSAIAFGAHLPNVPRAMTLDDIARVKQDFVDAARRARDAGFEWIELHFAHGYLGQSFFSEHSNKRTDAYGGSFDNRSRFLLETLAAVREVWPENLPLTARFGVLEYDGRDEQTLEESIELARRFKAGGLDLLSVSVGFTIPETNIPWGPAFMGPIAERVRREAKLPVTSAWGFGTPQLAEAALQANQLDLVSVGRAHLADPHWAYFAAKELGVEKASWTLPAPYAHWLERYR", "assay": "specific activity, absorbance at […] nm", "format": "biochemical", "details": "0.2 mM reduced cofactor, 5 mM ketoisophorone, 200 mM potassium phosphate pH 7.5, 37 °C"}, "[2]": {"substrate": "NC(=O)C1=CN([C@@H]2O[C@H](COP(=O)(O)OP(=O)(O)OC[C@H]3O[C@@H](n4cnc5c(N)ncnc54)[C@H](O)[C@@H]3O)[C@@H](O)[C@H]2O)C=CC1", "assay": "purified protein", "format": "biochemical, Lactiplantibacillus pentosus", "details": "50 mM Tris-HCl pH 7.0, 37 °C, apparent"}, "[3]": {"substrate": "NC(=O)C1=CN([C@@H]2O[C@H](COP(=O)(O)OP(=O)(O)OC[C@H]3O[C@@H](n4cnc5c(N)ncnc54)[C@H](OP(=O)(O)O)[C@@H]3O)[C@@H](O)[C@H]2O)C=CC1", "assay": "purified protein", "format": "biochemical, Lactiplantibacillus pentosus", "details": "50 mM Tris-HCl pH 7.0, 37 °C, apparent"}}, "note": "Substitutions are numbered along the chain they refer to. Numbers in names are those of the source."}
{"molecule": "NC(=O)C1=CN([C@@H]2O[C@H](COP(=O)(O)O)[C@@H](O)[C@H]2O)C=CC1", "note": "[NMNH]", "values": [{"measurement": "specific activity, absorbance at 340 nm", "setting": "[1]", "value": "Specific activities of redox partners toward NMNH."}]}
{"molecule": "B1", "values": [{"measurement": "Km", "setting": "[2]", "value": "1900 ± 40", "unit": "µM"}, {"measurement": "kcat", "setting": "[2]", "value": "31 ± 1", "unit": "s⁻¹"}, {"measurement": "kcat/Km", "setting": "[2]", "value": "17000 ± 200", "unit": "M⁻¹ s⁻¹"}, {"measurement": "Km", "setting": "[3]", "value": "1100 ± 100", "unit": "µM"}, {"measurement": "kcat", "setting": "[3]", "value": "28 ± 1", "unit": "s⁻¹"}, {"measurement": "kcat/Km", "setting": "[3]", "value": "26000 ± 1000", "unit": "M⁻¹ s⁻¹"}]}
{"molecule": "B2", "values": [{"measurement": "Km", "setting": "[2]", "value": "25 ± 1", "unit": "µM"}, {"measurement": "kcat", "setting": "[2]", "value": "21 ± 0.3", "unit": "s⁻¹"}, {"measurement": "kcat/Km", "setting": "[2]", "value": "840000 ± 10000", "unit": "M⁻¹ s⁻¹"}, {"measurement": "Km", "setting": "[3]", "value": "1900 ± 200", "unit": "µM"}, {"measurement": "kcat", "setting": "[3]", "value": "18 ± 2", "unit": "s⁻¹"}, {"measurement": "kcat/Km", "setting": "[3]", "value": "9300 ± 200", "unit": "M⁻¹ s⁻¹"}]}
{"molecule": "B3", "values": [{"measurement": "Km", "setting": "[2]", "value": "1700 ± 200", "unit": "µM"}, {"measurement": "kcat", "setting": "[2]", "value": "47 ± 4", "unit": "s⁻¹"}, {"measurement": "kcat/Km", "setting": "[2]", "value": "28000 ± 1000", "unit": "M⁻¹ s⁻¹"}, {"measurement": "Km", "setting": "[3]", "value": "890 ± 40", "unit": "µM"}, {"measurement": "kcat", "setting": "[3]", "value": "27 ± 2", "unit": "s⁻¹"}, {"measurement": "kcat/Km", "setting": "[3]", "value": "31000 ± 1000", "unit": "M⁻¹ s⁻¹"}]}
